The results in this text go back to patent US20210332142A1 (Genentech, published 2021).

One assay concerns the target T1, human Tie1 (human, UniProt P35590 22-759).
T1 construct: extracellular domain
T1 sequence (looked up): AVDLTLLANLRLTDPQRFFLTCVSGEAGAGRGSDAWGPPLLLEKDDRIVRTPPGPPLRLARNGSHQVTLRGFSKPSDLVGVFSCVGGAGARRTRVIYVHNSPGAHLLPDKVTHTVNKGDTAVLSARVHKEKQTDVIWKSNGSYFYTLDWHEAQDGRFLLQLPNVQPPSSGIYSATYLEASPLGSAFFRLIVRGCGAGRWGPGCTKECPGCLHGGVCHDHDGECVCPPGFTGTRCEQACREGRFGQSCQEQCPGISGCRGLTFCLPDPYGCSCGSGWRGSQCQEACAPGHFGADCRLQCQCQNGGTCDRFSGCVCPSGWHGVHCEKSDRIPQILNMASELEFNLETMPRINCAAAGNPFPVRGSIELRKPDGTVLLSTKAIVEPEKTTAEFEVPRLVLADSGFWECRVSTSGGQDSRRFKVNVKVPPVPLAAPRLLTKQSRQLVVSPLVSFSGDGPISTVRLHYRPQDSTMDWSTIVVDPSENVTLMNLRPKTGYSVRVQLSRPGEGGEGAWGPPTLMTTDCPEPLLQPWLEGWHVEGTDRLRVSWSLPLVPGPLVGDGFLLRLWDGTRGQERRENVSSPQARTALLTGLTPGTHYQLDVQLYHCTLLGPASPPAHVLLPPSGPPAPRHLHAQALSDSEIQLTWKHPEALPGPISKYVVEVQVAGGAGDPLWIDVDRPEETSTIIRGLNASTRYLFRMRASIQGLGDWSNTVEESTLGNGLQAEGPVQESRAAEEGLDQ
Kind of assay: ELISA: human Tie1 immobilized, serial dilutions of IgG, anti-huFc-HRP. An excerpt:
(§1) Plates were washed and detected with anti-huFC-conjugated HRP secondary antibody using the methods above.
The binding ELISA was also used with immobilized Tie1 protein to assess Tie1 binding.

The next assay concerns the target T2, omalizumab.
T2 construct: Used as irrelevant coated protein; also called irrelevant Fc-containing protein; not shown: the constant regions
Put plainly: phage ELISA.

In another assay the target is T3, mouse Tie2 ECD5 (mouse, UniProt Q02858 23-442, limits assumed).
T3 construct: domain: ECD5 (Ig1, Ig2, EGF and Ig3 domains); also called mECD5
Kind of assay: ELISA: mouse Tie2 ECD5 construct immobilized, serial dilutions of IgG, anti-huFc-HRP.
Source text: as §1

Another assay concerns the target T4, human Tie2ECD.flag (human, UniProt Q02763 23-748).
T4 construct: also called hTie2.flag; not shown: C-terminal Flag tag
Kind of assay: Biacore, hIgG captured, 25C. How it is done: (§2) Monovalent affinities of selected anti-Tie2 hIgGs were determined using a Biacore T200 instrument (GE Life Sciences). Anti-humanFc was covalently immobilized on a Series S CM5 Biacore sensor chip to enable non-covalent capture of anti-Tie2 antibodies and binding of human or rat Tie2ECD.flag was monitored in real time at 25° C. using a multi-cycle kinetics experiment format. Between cycles, the surface was regenerated with 3 M MgCl₂. Monovalent affinities were determined by kinetic analysis, using Biacore Evaluation Software (GE Life Sciences) to fit a 1:1 binding model to the data.

The target in the next assay is T5, rat Tie2ECD.flag (rat, UniProt A0ABK0L6J5 19-740).
T5 construct: extracellular domain; also called rTie2.flag; not shown: C-terminal Flag tag
Put plainly: Biacore, hIgG captured, 25C. The method, then: as §2

The target in assay [1] is T6, human Tie2 ECD5 (extracellular domain without the FN3 domains; Ig1, Ig2, EGF and Ig3 domains) (human, UniProt Q02763 23-442).
T6 construct: whole entry named; also called huECD5; hECD5; not shown: C-terminal carrier of the coated construct (hIgG1 Fc or Flag tag)
Kind of assay: ELISA: human Tie2 ECD5 construct immobilized, serial dilutions of IgG, anti-huFc-HRP.
Source text: as §1

For assay [2], the target named is T7, mouse Tie2 full extracellular domain (mouse, UniProt Q02858 23-746).
T7 construct: extracellular domain; also called mFullECD
Kind of assay: phage ELISA. The method, then:
Clones from the fourth round were screened for Tie2 binding and specificity by ELISA. Screening ELISAs were carried out by coating the wells of a 96-well microtiter plate with Tie2 protein or irrelevant protein at 65 ul per well (1 ug/ml in coating buffer) at 4° C. overnight. In a 96-tube plate, colonies from the fourth round were grown overnight at 37° C. in 400 ul 2YT media with 50 ug/ml carbenicillin and helper phage K07. The plate was spun down at 3000 rpm for 10 min. 30 ul of the culture supernatant was added with 60 ul of ELISA buffer (PBS with 0.5% BSA and 0.05% Tween20) to the Tie2-coated plate and incubated at room temperature for 1 hr. Plates were washed with PBS—0.05% Tween20 and 100 ul/well of horseradish peroxidase (HRP)-conjugated anti-M13 antibody (1/5000 dilution in PBS plus 0.5% BSA and 0.05% Tween20) at room temperature for 30 min (Sidhu et al., supra). The wells were washed with PBS—0.05% Tween20 prior to 100 ul/well of a 1:1 ratio of 3,3′,5,5′-tetramethylbenzidine (TMB) peroxidase substrate and Peroxidase Solution B (H₂O₂) ((Kirkegaard-Perry Laboratories (Gaithersburg, Md.)) being added per well and incubated for 5 min at room temperature. The reaction was stopped by adding 100 ul 1M phosphoric Acid (H₃PO₄) per well and the OD of wells was determined using a standard ELISA plate reader at 450 nm.

T4 sequence (Q02763 23-748 limits assumed): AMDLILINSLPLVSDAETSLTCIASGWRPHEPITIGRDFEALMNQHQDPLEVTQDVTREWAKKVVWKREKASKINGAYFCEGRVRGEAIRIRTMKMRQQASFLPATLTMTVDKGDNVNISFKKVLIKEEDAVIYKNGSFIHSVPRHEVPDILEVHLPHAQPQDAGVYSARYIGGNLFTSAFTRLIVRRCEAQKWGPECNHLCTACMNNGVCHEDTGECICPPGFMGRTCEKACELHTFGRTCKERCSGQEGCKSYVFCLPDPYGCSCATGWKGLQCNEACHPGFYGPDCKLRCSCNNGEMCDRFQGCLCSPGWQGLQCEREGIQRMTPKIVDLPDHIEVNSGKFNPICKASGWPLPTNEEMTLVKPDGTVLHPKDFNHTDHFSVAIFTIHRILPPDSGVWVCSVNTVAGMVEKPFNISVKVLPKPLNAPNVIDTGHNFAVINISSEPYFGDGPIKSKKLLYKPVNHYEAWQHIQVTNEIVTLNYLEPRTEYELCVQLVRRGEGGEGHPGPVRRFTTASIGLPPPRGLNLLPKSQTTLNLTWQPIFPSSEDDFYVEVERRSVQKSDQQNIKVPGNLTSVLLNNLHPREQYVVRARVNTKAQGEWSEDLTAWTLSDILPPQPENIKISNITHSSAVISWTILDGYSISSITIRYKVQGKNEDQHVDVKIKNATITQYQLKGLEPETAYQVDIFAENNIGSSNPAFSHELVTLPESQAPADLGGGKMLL
T7 sequence (Q02858 23-746): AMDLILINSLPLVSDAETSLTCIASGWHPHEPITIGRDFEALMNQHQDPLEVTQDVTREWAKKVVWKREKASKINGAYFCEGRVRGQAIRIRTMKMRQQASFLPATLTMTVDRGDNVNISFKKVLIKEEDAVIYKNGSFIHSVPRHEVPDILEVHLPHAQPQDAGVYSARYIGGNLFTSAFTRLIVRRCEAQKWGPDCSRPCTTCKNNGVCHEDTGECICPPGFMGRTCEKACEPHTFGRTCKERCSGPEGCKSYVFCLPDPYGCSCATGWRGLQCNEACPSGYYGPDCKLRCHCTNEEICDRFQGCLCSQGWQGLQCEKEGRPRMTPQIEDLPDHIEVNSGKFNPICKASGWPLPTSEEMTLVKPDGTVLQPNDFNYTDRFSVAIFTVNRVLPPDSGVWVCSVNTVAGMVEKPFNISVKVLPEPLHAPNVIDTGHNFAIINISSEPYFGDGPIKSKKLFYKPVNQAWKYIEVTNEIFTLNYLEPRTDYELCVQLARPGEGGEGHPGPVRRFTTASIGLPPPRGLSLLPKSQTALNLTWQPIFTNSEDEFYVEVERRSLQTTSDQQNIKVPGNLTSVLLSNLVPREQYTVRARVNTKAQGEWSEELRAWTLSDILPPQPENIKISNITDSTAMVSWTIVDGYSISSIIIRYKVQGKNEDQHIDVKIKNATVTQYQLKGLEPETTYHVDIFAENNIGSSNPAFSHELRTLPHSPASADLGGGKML
T3 sequence (Q02858 23-442 limits assumed): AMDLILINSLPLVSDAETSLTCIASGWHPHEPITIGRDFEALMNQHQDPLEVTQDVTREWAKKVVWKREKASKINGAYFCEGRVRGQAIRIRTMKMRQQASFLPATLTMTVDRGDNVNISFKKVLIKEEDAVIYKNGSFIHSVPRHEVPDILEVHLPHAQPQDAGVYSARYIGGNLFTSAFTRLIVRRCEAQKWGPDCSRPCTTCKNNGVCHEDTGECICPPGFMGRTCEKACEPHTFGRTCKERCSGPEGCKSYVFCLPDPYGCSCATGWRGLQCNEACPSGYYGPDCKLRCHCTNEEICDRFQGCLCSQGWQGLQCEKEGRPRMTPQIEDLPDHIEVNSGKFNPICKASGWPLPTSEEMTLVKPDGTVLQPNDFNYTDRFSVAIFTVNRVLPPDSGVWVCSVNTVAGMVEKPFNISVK
T6 sequence (Q02763 23-442 limits assumed): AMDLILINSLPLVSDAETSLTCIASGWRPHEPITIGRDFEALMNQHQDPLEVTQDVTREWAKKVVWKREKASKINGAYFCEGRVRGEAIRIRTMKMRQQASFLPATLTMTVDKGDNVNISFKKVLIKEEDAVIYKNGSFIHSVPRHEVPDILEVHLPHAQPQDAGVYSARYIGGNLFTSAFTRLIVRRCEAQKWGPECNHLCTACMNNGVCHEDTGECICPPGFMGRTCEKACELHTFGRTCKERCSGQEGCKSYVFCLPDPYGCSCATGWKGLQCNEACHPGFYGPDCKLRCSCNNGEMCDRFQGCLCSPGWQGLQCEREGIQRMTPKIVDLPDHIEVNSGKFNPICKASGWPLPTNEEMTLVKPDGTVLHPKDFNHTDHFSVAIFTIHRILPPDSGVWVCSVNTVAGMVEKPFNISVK

B1: Tie2.12 (antibody, IgG1, V domains shown)
VH: EVQLVESGGGLVQPGGSLRLSCAASGFTFSSYWIHWVRQAPGKGLEWVAAISPNDGSTYYADSVKGRFTISADTSKNTAYLQMNSLRAEDTAVYYCARSRYYGQRLVYYVMDYWGQGTLVTVSS
VL: DIQMTQSPSSLSASVGDRVTITCRASQDVSTAVAWYQQKPGKAPKLLIYSASFLYSGVPSRFSGSGSGTDFTLTISSLQPEDFATYYCQQSYTTPPTFGQGTKVEIKR
notes: hIgG1 in later assays; also called Ab12
On to B1, for which the binding result in the assay with human Tie1 is recorded as “no binding (tested: 200 nM)”; in the assay with omalizumab, “no binding”. The 50% effective concentration (EC50 (read off the curve)) (with mouse Tie2 ECD5; in assay [1]) was approximately 1 nM each time. Besides, the values for the equilibrium dissociation constant (Kd) with human Tie2ECD.flag and with rat Tie2ECD.flag were 52 nM and 116 nM, respectively.

B2: Tie2.24 (antibody, IgG1, V domains shown)
VH: EVQLVESGGGLVQPGGSLRLSCAASGFTFTSSGISWVRQAPGKGLEWVATINPYGGDTYYADSVKGRFTISADTSKNTAYLQMNSLRAEDTAVYYCARFYRFLSSGMDYWGQGTLVTVSS
VL: B1 VL
notes: hIgG1 in later assays; also called Ab24
Regarding B2, the binding result was “no binding” with omalizumab and “binds” in assay [2]. Further, the results for the dissociation constant (Kd) in the assay with human Tie2ECD.flag and with rat Tie2ECD.flag were 822 nM and 2800 nM, respectively.
